Data taken from patent publication US20230167482A1, “FUNCTIONAL CYTOCHROME P450 IN VITRO ASSAY” (PharmGenetix GmbH, priority 2019, published 2023).
Residue numbers refer to the chain shown, from its start.

B1: *10: human CYP2D6 variant allele *10 (PV00435), SEQ ID NO: 6 (protein, UniProt P10635 1-497, looked up, variant P34S S486T)
Cytochrome P450 2D6: MGLEALVPLAVIVAIFLLLVDLMHRRQRWAARYSPGPLPLPGLGNLLHVDFQNTPYCFDQLRRRFGDVFSLQLAWTPVVVLNGLAAVREALVTHGEDTADRPPVPITQILGFGPRSQGVFLARYGPAWREQRRFSVSTLRNLGLGKKSLEQWVTEEAACLCAAFANHSGRPFRPNGLLDKAVSNVIASLTCGRRFEYDDPRFLRLLDLAQEGLKEESGFLREVLNAVPVLLHIPALAGKVLRFQKAFLTQLDELLTEHRMTWDPAQPPRDLTEAFLAEMEKAKGNPESSFNDENLRIVVADLFSAGMVTTSTTLAWGLLLMILHPDVQRRVQQEIDDVIGQVRRPEMGDQAHMPYTTAVIHEVQRFGDIVPLGVTHMTSRDIEVQGFRIPKGTTLITNLSSVLKDEAVWEKPFRFHPEHFLDAQGHFVKPEAFLPFSAGRRACLGEPLARMELFLFFTSLLQHFSFSVPTGQPRPSHHGVFAFLVTPSPYELCAVPR
B2: *29: human CYP2D6 variant allele *29 (PV00453), SEQ ID NO: 8 (protein, UniProt P10635 1-497, looked up, variant V136I R296C V338M S486T)
Cytochrome P450 2D6: B1 Cytochrome P450 2D6 with S34P, V136I, R296C, V338M
B3: *14: human CYP2D6 variant allele *14 (PV00439), SEQ ID NO: 7 (protein, UniProt P10635 1-497, looked up, variant P34S G169R R296C S486T)
Cytochrome P450 2D6: B1 Cytochrome P450 2D6 with G169R, R296C
B4: *9: human CYP2D6 variant allele *9 (PV00434), SEQ ID NO: 5 (protein, UniProt P10635 1-497, looked up, variant K281*)
Cytochrome P450 2D6: MGLEALVPLAVIVAIFLLLVDLMHRRQRWAARYPPGPLPLPGLGNLLHVDFQNTPYCFDQLRRRFGDVFSLQLAWTPVVVLNGLAAVREALVTHGEDTADRPPVPITQILGFGPRSQGVFLARYGPAWREQRRFSVSTLRNLGLGKKSLEQWVTEEAACLCAAFANHSGRPFRPNGLLDKAVSNVIASLTCGRRFEYDDPRFLRLLDLAQEGLKEESGFLREVLNAVPVLLHIPALAGKVLRFQKAFLTQLDELLTEHRMTWDPAQPPRDLTEAFLAEMEAKGNPESSFNDENLRIVVADLFSAGMVTTSTTLAWGLLLMILHPDVQRRVQQEIDDVIGQVRRPEMGDQAHMPYTTAVIHEVQRFGDIVPLGVTHMTSRDIEVQGFRIPKGTTLITNLSSVLKDEAVWEKPFRFHPEHFLDAQGHFVKPEAFLPFSAGRRACLGEPLARMELFLFFTSLLQHFSFSVPTGQPRPSHHGVFAFLVSPSPYELCAVPR

Tested on: CYP2D6
Test: Functional CYP2D6 in vitro assay: HEK-Blue cells transiently transfected with a CYP2D6 variant, P450-Glo luminescence with Luciferin-ME EGE, normalized to secreted NanoLuc
Format: cell-based, human
Details: one-way ANOVA followed by Dunnett post hoc test, categories: loss, decrease, normal, increase of function
Procedure: Therefore the CYP2D6 coding sequence (CDS) of interest is cloned into pcDNA3.1-HISC vector, and variants of interest are produced via site-directed mutagenesis (FIG. 1; step 1).
pcDNA3.1-HISC (A) and pNL1.3CMV[secNluc/CMV] (B) vectors are co-transfected in HEK-Blue™ cells (FIG. 1; step 2). 48 hours after transfection, secreted NanoLuc is detected and measured by luminescence using a multi-plate reader (FIG. 1; step 3). Following NanoLuc detection, old media is replaced with Luciferin ME-EGE containing media (FIG. 1; step 4). After 3 hours incubation at 37° C., cells are lysed and luciferin production (proportional to CYP2D6 activity) is measured using a multi-plate reader (FIG. 1; step 5).
CYP2D6 cDNA was obtained from total liver RNA (Ambion®, Life Technology, Wien, Austria), following Reverse-Transcription-PCR (RT-PCR) using the Quantitect® Reverse Transcription kit (Qiagen, Hilden, Germany) following manufacturer instructions. The CYP2D6 coding sequence (CDS) was then amplified using the following oligonucleotide primers: 5′-[…]-3′ (forward primer) and 5′-[…]-3′ (reverse primer). The CYP2D6 CDS was then cloned into the pcDNA3.1-HISC eukaryotic protein expression vector under the control of the CMV immediate enhancer and promoter, using the NheI and KpnI restriction digestion enzymes (Thermo Scientific, Waltham, Mass., USA). […] All the other tested CYP2D6 variants were similarly created. After production, vectors and cloned inserts were verified with Sanger sequencing against the wild-type reference sequence (SEQ ID No: 2).
Cell culture and transfection Human Embryonic Kidney (HEK)-Blue (HEK-Blue™ IL-4/IL-13 cells, Invivogen, Toulouse, France) cells, an engineered cell line derived from HEK-293 cells, were cultured in a humidified incubator at 37° C. with 5% CO2 with Dulbecco's Modified Eagles Medium (DMEM) supplemented with 4.5 g/L glucose, 10% (v/v) Fetal Bovine Serum (FBS), 1.5% NaHCO3, 50 U/mL penicillin, 50 μg/mL streptomycin, 10 μg/mL Blasticidin and 100 μg/mL Zeocin™ (Invivogen, Toulouse, France). Media was replaced three times weekly. […]
Forty-eight hours following transfection, a 20 μL aliquot of the supernatant was transferred from each well into a new white 96-well Nunclon™ A Surface plate for the detection of the secreted NanoLuc® levels using the Nano-Glo® Luciferase assay (Promega, Mannheim, Germany). […] Following three minutes incubation at room temperature (RT), luminescence was measured using the Spark® 10M multimode multiplate reader (Tecan, Grodig, Austria), keeping an optical density filter of 1 (OD1) and 1 second of integration time. Luminescence levels directly correspond to the amount of secreted NanoLuc®, which is used for normalization of transfection efficiency. […]

Row | Molecule | function category of the variant versus *1 and *3 controls
1 | B1 | decrease of function
2 | B2 | decrease of function
3 | B3 | decrease of function
4 | B4 | decrease of function
